This note sets out measurements from the supplement of paper PMC10567573.

B1: MFF (parent)
chain: MAEISRIQYEMEYTEGISQRMRVP
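Note: lentivirally expressed fusions sorted by FACS into six bins by GFP to DsRed ratio, PSI derived from sequencing read proportions per bin multiplied by bin number.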

Variants of B1 are the subject of this data set. Nature of the data set: protein stability index of a GFP-peptide fusion (GPS, HEK-293T) (PSI 1-6); higher = more stable. To be noted: c terminus: a fixed tail appended.
On to MAEISRIQYEMEYTEGIPQRMRVP [S18P], for which the protein stability index stood at 2.65.
Regarding MAEISRIQYEMEYTEGIYQRMRVP [S18Y], the protein stability index came out at 1.92.
The same measure for MAEISRIQYEMEYTEGICQRMRVP [S18C]: 2.41; for MAEISRFQYEMEYTEGISQRMRVP [I7F]: 2.69.
The same measure for MAEISRSQYEMEYTEGISQRMRVP [I7S]: 3.51.
For the variant MAEISRKQYEMEYTEGISQRMRVP [I7K], the protein stability index came to 3.34.
In the case of MAEISRTQYEMEYTEGISQRMRVP [I7T] it was 3.4.
In the case of MAEISRVQYEMEYTEGISQRMRVP [I7V] it was 2.64; in that of MAEISRGQYEMEYTEGISQRMRVP [I7G], 3.03; in that of MAEISRIQYEMEYTEGISQRMQVP [R22Q], 2.43.
In the case of MAEISRIQYEMEYTEGISQRMKVP [R22K] it was 2.8; in that of MAEISRIQYEMEYTEGISQRMVVP [R22V], 2.9.
In the case of MAEISRIQYEMEYTEGISQRMNVP [R22N], the protein stability index worked out at 2.36.
Regarding MAEISRIHYEMEYTEGISQRMRVP [Q8H], the protein stability index is 2.47.
As for MAEISRIDYEMEYTEGISQRMRVP [Q8D], the protein stability index amounted to 2.85.
On to MAEISRINYEMEYTEGISQRMRVP [Q8N], for which the protein stability index turned out to be 2.85.
MAEISRIIYEMEYTEGISQRMRVP [Q8I]: the protein stability index came out at 2.52.
On to MAEISRIFYEMEYTEGISQRMRVP [Q8F], for which the protein stability index was found to be 1.58.
In the case of MAEISRIQYEMEYTEGISQRHRVP [M21H] it was 3.6.
As for MAEISRIQYEMEYTEGISQRPRVP [M21P], the protein stability index turned out to be 3.59.
Consider MAEISRIQYEMEYTEGISQRFRVP [M21F], for which the protein stability index came to 2.38.
As for MAEISRIQYEMEYTEGISQRVRVP [M21V], the protein stability index was 2.79.
The same measure for MAPISRIQYEMEYTEGISQRMRVP [E3P]: 3.31; for MANISRIQYEMEYTEGISQRMRVP [E3N]: 2.41.
In the case of MAIISRIQYEMEYTEGISQRMRVP [E3I] it was 1.7; in that of MAQISRIQYEMEYTEGISQRMRVP [E3Q], 2.07.
The same measure for MAEISRIQYEMEYTEGISQDMRVP [R20D]: 3.56; for MAEISRIQYEMEYTEGISQHMRVP [R20H]: 2.22.
MAEISRIQYEMEYTEGISQTMRVP [R20T]: the protein stability index was 2.66.
For the variant MAEISRIQKEMEYTEGISQRMRVP [Y9K], the protein stability index came to 2.95.
In the case of MAEISRIQAEMEYTEGISQRMRVP [Y9A] it was 3.31; in that of MAEISRIQREMEYTEGISQRMRVP [Y9R], 2.88.
The same measure for MAEISRIQQEMEYTEGISQRMRVP [Y9Q]: 3.35; for MAEISRIQHEMEYTEGISQRMRVP [Y9H]: 3.09; for MAEISRIQPEMEYTEGISQRMRVP [Y9P]: 3.57.
As to MAEISRIQVEMEYTEGISQRMRVP [Y9V], the protein stability index is 2.15.
The same measure for MAEISRIQIEMEYTEGISQRMRVP [Y9I]: 1.71.
As to MAEISRIQMEMEYTEGISQRMRVP [Y9M], the protein stability index is 2.42.
As for MAEISRIQCEMEYTEGISQRMRVP [Y9C], the protein stability index was 2.78.
In the case of PAEISRIQYEMEYTEGISQRMRVP [M1P] it was 3.45; in that of IAEISRIQYEMEYTEGISQRMRVP [M1I], 2.36.
NAEISRIQYEMEYTEGISQRMRVP [M1N]: the protein stability index is 3.16.
For the variant EAEISRIQYEMEYTEGISQRMRVP [M1E], the protein stability index came out at 4.04.
The same measure for TAEISRIQYEMEYTEGISQRMRVP [M1T]: 3.28; for CAEISRIQYEMEYTEGISQRMRVP [M1C]: 1.85.
On to MAEISRIQYEMEYTEGISQRMRFP [V23F], for which the protein stability index turned out to be 1.99.
Turning to MAEISRIQYEMEYTEGISQRMRKP [V23K], the protein stability index turned out to be 3.43.
The same measure for MAEISRIQYEMEYTEGISQRMRTP [V23T]: 2.56; for MAEISRIQYEMEYTEGISQRMRYP [V23Y]: 2.41.
In the case of MAEISRIQYEMEYTEGISQRMRCP [V23C] it was 2.87; in that of MAEISRIQYEMEYTEGISQRMRRP [V23R], 2.73.
In the case of MAEISRIQYEMEYTEGISQRMRHP [V23H] it was 2.54; in that of MAEMSRIQYEMEYTEGISQRMRVP [I4M], 3.56; in that of MAEHSRIQYEMEYTEGISQRMRVP [I4H], 3.34.
In the case of MAEGSRIQYEMEYTEGISQRMRVP [I4G], the protein stability index was 3.4.
The same measure for MAEDSRIQYEMEYTEGISQRMRVP [I4D]: 3.41; for MAELSRIQYEMEYTEGISQRMRVP [I4L]: 2.99; for MAEYSRIQYEMEYTEGISQRMRVP [I4Y]: 2.8.
The same measure for MAEISRIQYEDEYTEGISQRMRVP [M11D]: 3.61; for MAEISRIQYELEYTEGISQRMRVP [M11L]: 2.37; for MAEISRIQYEIEYTEGISQRMRVP [M11I]: 2.16.
The same measure for MAEISRIQYEGEYTEGISQRMRVP [M11G]: 3.28.
MAEISRIQYEQEYTEGISQRMRVP [M11Q]: the protein stability index is 3.35.
In the case of MAEISRIQYEMEYTLGISQRMRVP [E15L] it was 1.66.
In the case of MAEISRIQYEMEYTPGISQRMRVP [E15P] it was 1.96; in that of MAEISRIQYEMEYTHGISQRMRVP [E15H], 2.21.
For the variant MAEISRIQYEMEYTCGISQRMRVP [E15C], the protein stability index was 1.46.
The same measure for MAEISRIQYEMEYTYGISQRMRVP [E15Y]: 2.03; for MAEISRIQYEMEYTEGVSQRMRVP [I17V]: 2.96.
MAEISRIQYEMEYTEGASQRMRVP [I17A]: the protein stability index worked out at 3.03.
In the case of MAEISRIQYEMEYTEGWSQRMRVP [I17W] it was 2.25; in that of MAEISRIQYEMEYTEGMSQRMRVP [I17M], 2.35; in that of MAEISRIQYEMIYTEGISQRMRVP [E12I], 1.28.
The same measure for MAEISRIQYEMSYTEGISQRMRVP [E12S]: 2.42; for MAEISRIQYEMMYTEGISQRMRVP [E12M]: 1.84.
As for MAEISRIQYEMQYTEGISQRMRVP [E12Q], the protein stability index worked out at 1.87.
With MAEISRIQYEMVYTEGISQRMRVP [E12V], the protein stability index is 1.76.
The same measure for MAEISRIQYEMEYTEMISQRMRVP [G16M]: 1.88; for MAEISRIQYEMEYTEQISQRMRVP [G16Q]: 2.29; for MAEISRIQYEMEYTEWISQRMRVP [G16W]: 2.04.
The same measure for MAEISRIQYEMEYTETISQRMRVP [G16T]: 2.22; for MAEISRIQYEMEYTEVISQRMRVP [G16V]: 2.07.
In the case of MAEISRIQYEMEYTEKISQRMRVP [G16K] it was 2.71; in that of MAEISRIQYEMEMTEGISQRMRVP [Y13M], 2.67; in that of MAEISRIQYEMEDTEGISQRMRVP [Y13D], 3.95.
For the variant MAEISRIQYEMECTEGISQRMRVP [Y13C], the protein stability index turned out to be 3.22.
In the case of MAEISRIQYEMERTEGISQRMRVP [Y13R] it was 2.71.
With MAEISRIQYEMETTEGISQRMRVP [Y13T], the protein stability index is 3.46.
MAEISRIQYEMEWTEGISQRMRVP [Y13W]: the protein stability index turned out to be 2.77.
The same measure for MAEISRIQYEMEQTEGISQRMRVP [Y13Q]: 3.35; for MWEISRIQYEMEYTEGISQRMRVP [A2W]: 1.51; for MTEISRIQYEMEYTEGISQRMRVP [A2T]: 2.74.
In the case of MNEISRIQYEMEYTEGISQRMRVP [A2N] it was 3.09.
In the case of MIEISRIQYEMEYTEGISQRMRVP [A2I] it was 2.17.
